The values that follow come from patent publication US12209122.

Numbering of substitutions follows the chain as printed. Names and notes keep the numbering of the source.

B1: humanized single-chain diabody of clone 16-22-H05 (other)
chain: MDIQMTQSPSSLSASVGDRVTIKCQASQSIFSGLAWYQQKPGKAPKLLIYGASKLASGVPSRFSGSGSGTEFTLTISGLQPADFATYYCQSYYYSSSSSDGSYAFGGGTKLTVLGGGGGSEVQLVESGGGLVQPGGSLRLSCKASGIDFNNYGIGWVRQAPGKGLEWITYIYPGFAITNFANSVKGRFTISSDNSKNTVYLQMNSLRAEDTAVYYCARDPVYATSSGYFDLWGQGTLVTVSSGGGGSGGGGSGGGGSGGGGSDIQMTQSPSSLSASVGDRVTIKCQASQSIFSGLAWYQQKPGKAPKLLIYGASKLASGVPSRFSGSGSGTEFTLTISGLQPADFATYYCQSYYYSSSSSDGSYAFGGGTKLTVLGGGGGSEVQLVESGGGLVQPGGSLRLSCKASGIDFNNYGIGWVRQAPGKGLEWITYIYPGFAITNFANSVKGRFTISSDNSKNTVYLQMNSLRAEDTAVYYCARDPVYATSSGYFDLWGQGTLVTVSS
notes: Single-chain diabody VLA-L1-VHB-L2-VLB-L3-VHA, bivalent for TNFα; L1 and L3 are G4S, L2 is (G4S)4; also called 16-22-H5-scDb; scDb
B2: humanized IgG of clone 16-22-H05 (antibody, V domains shown)
VH: EVQLVESGGGLVQPGGSLRLSCKASGIDFNNYGIGWVRQAPGKGLEWITYIYPGFAITNFANSVKGRFTISSDNSKNTVYLQMNSLRAEDTAVYYCARDPVYATSSGYFDLWGQGTLVTVSS
VL: DIQMTQSPSSLSASVGDRVTIKCQASQSIFSGLAWYQQKPGKAPKLLIYGASKLASGVPSRFSGSGSGTEFTLTISGLQPADFATYYCQSYYYSSSSSDGSYAFGGGTKLTVLG
notes: Transiently expressed in CHO S cells and purified on Protein A; also called 16-22-H5-IgG
B3: recombinant human TNFβ (Peprotech, Cat. No. 300-01B) (ligand, UniProt P01374 35-205, looked up)
chain: LPGVGLTPSAAQTARQHPKMHLAHSTLKPAAHLIGDPSKQNSLLWRANTDRAFLQDGFSLSNNSLLVPTSGIYFVYSQVVFSGKAYSPKATSSPLYLAHEVQLFSSQYPFHVPLLSSQKMVYPGLQEPWLHSMYHGAAFQLTQGDQLSTHTDGIPHLVLSPSTVFFGAFAL
B4: humanized scFv 16-22-H05-sc02 (structural graft, STR) (scFv)
scFv: MDIQMTQSPSSLSASVGDRVTIKCQASQSIFSGLAWYQQKPGKAPKLLIYGASKLASGVPSRFSGSGSGTEFTLTISGLQPADFATYYCQSYYYSSSSSDGSYAFGGGTKLTVLGGGGGSGGGGSGGGGSGGGGSEVQLVESGGGLVQPGGSLRLSCKASGIDFNNYGIGWVRQAPGKGLEWITYIYPGFAITNFANSVKGRFTISSDNSKNTVYLQMNSLRAEDTAVYYCARDPVYATSSGYFDLWGQGTLVTVSS
notes: also called 16-22-H5-sc02; 16-22-H04-sc02 [sic]
B5: 16-22-H5-scFv (scFv format of Examples 3 to 7) (scFv)
chain: B4 scFv
B6: humanized scFv 16-22-H05-sc04 (CDR grafted light chain, structural grafted heavy chain, CDR/STR) (scFv)
scFv: B4 scFv with K23T
notes: also called 16-22-05-sc04

The target of experiment [1] is T1, recombinant human TNFα (Peprotech, Cat. No. 300-01) (human, UniProt P01375 77-233).
T1 construct: also called TNFαtrimer; biotinylated TNFα
The experiment can be described thus: SPR as in Example 2 under 2.1.1.

Experiment [2] has as its target T1, recombinant human TNFα (Peprotech, Cat. …). The experiment can be described thus: cell-based or functional assay.
Experiment [3] has as its target B6. The experiment can be described thus: competition ELISA, coated scFv, biotinylated TNFα 75 ng/ml, unlabeled TNFβ varied. On the procedure: (§1) For this purpose, the scFvs were coated on a 96-well Maxisorp ELISA plate at a concentration of 1 μg/ml. […] To control precision of the response, the dose-response curves were analyzed in duplicate.
Experiment [4] addresses B4. The description is as above. On the procedure: as §1
The target of experiment [5] is B6. The experiment can be described thus: competition ELISA, coated scFv, biotinylated TNFα, unlabeled TNFβ against unlabeled TNFα. On the procedure: as §1
The target of experiment [6] is B4. The description is as above. On the procedure: as §1
The target of experiment [7] is T2, Rhesus monkey TNFα (R&D Systems, Cat. No. 1070-RM-025/CF) (Rhesus monkey (Macaca mulatta), UniProt P48094 77-233). The experiment can be described thus: cell-based or functional assay.
Experiment [8] has as its target T3, recombinant Cynomolgus monkey TNFα (Sino Biological, Cat. No. 90018-CNAE) (Cynomolgus monkey (Macaca fascicularis), UniProt P79337 77-233). The experiment can be described thus: cell-based or functional assay.
In experiment [9] the target is T1, recombinant human TNFα (Peprotech, Cat. …). The experiment can be described thus: cell-based or functional assay. The source holds these as a separate data set.
Experiment [10] addresses T3, recombinant Cynomolgus monkey TNFα …. The experiment can be described thus: SPR (MASS-1), cyno TNFα immobilized, scFv 45 to 1.4 nM. On the procedure:
(§2) In a second step, for the best performing scFvs, Single Injection Cycle Kinetics (SiCK) were measured from a single injection cycle by simultaneously injecting six analyte samples at different concentrations into each of the eight parallel channels in the MASS-1 system. […] The apparent dissociation (k_d) and association (k_a) rate constants and the apparent dissociation equilibrium constant (K_D) were calculated with the MASS-1 analysis software (Analyzer, Sierra Sensors) using one-to-one Langmuir binding model and quality of the fits was monitored based on Chi^2, which is a measure for the quality of the curve fitting. The smaller the value for the Chi^2 the more accurate is the fitting to the one-to-one Langmuir binding model. For affinity screenings, results were deemed valid if the Chi^2 was below 10 for the concentration analyzed. In cases where several scFv concentrations were analyzed, results were deemed valid if the average Chi^2 over all the concentrations tested was below 10.

The target in experiment [11] is T1, recombinant human TNFα (Peprotech, Cat. …). The experiment can be described thus: inhibition ELISA, blocking of TNFα binding to coated TNFRI-Fc. From the text: (§3) For the first inhibition ELISA, the extracellular domain of TNFRI fused to the Fc region of human IgG (R&D Systems, Cat. No. 372-RI) was coated on a 96-well Maxisorp ELISA at a concentration of […]. […] All subsequent steps were identical for both assays.

For experiment [12] the target is unchanged. The experiment can be described thus: inhibition ELISA, blocking of TNFα binding to coated TNFRI-Fc; reference infliximab.
Excerpt: as §3

Experiment [13] deals with T2, Rhesus monkey TNFα (R&D Systems, Cat. …). The experiment can be described thus: SPR (MASS-1), Rhesus TNFα immobilized, scFv 45 to 1.4 nM. On the procedure:
as §2

Experiment [14] deals with T1, recombinant human TNFα (Peprotech, Cat. …). The experiment can be described thus: inhibition ELISA, blocking of TNFα binding to coated TNFRII-Fc.
Excerpt: as §3

For experiment [15], the target named is T2, Rhesus monkey TNFα (R&D Systems, Cat. …). The experiment can be described thus: SPR, TNFα immobilized, scFv injected. On the procedure:
as §2

Experiment [16] addresses T3, recombinant Cynomolgus monkey TNFα …. The experiment can be described thus: SPR, TNFα immobilized, scFv injected. On the procedure: as §2
Experiment [17] concerns the target T1, recombinant human TNFα (Peprotech, Cat. …). The experiment can be described thus: SPR (MASS-1), TNFα immobilized, scFv 45 to 1.4 nM. On the procedure:
In a second step, for the best performing scFvs, Single Injection Cycle Kinetics (SiCK) were measured from a single injection cycle by simultaneously injecting six analyte samples at different concentrations into each of the eight parallel channels in the MASS-1 system. […] The apparent dissociation (k_d) and association (k_a) rate constants and the apparent dissociation equilibrium constant (K_D) were calculated with the MASS-1 analysis software (Analyzer, Sierra Sensors) using one-to-one Langmuir binding model and quality of the fits was monitored based on Chi^2, which is a measure for the quality of the curve fitting.

Experiment [18] has the same target. The experiment can be described thus: inhibition ELISA, blocking of TNFα binding to coated TNFRII-Fc; reference infliximab.
Experiment [19] addresses B3. The experiment can be described thus: competition ELISA, coated scFv, biotinylated TNFα, unlabeled TNFβ. On the procedure:
as §1

T1 sequence (P01375 77-233 limits assumed): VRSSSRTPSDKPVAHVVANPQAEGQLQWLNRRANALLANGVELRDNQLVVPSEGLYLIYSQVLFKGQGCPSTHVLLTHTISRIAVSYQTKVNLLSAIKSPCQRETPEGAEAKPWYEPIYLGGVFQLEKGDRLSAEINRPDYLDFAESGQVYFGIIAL
T2 sequence (P48094 77-233 limits assumed): as the sequence (P01375 77-233 limits assumed) above, with R44T, T72N, R138L counted along it
T3 sequence (P79337 77-233 limits assumed): as the sequence (P01375 77-233 limits assumed) above, with L37V, R44T, T72N, R138L counted along it

With B1, in [1], the equilibrium dissociation constant (Kd) worked out at 0.0215 nM, the koff worked out at 2.02e-05 s⁻¹ and the on-rate constant (kon) turned out to be 940000 M⁻¹ s⁻¹. Also, the “Potency IC50 (nM), L929 assay” value in [2] worked out at 0.01 nM.
Consider B2, for which, in experiment [1], the Kd came out at 0.0417 nM, the koff was 7.92e-05 s⁻¹ and the kon worked out at 1.9e+06 M⁻¹ s⁻¹. Also, the “Potency IC50 (nM), L929 assay” value in [2] was found to be 0.02 nM.
For the molecule B3, the IC50 in experiment [3] and in experiment [4] was over 1250 µg/mL throughout. Besides, the “Target selectivity, rel. IC50 of TNFβ vs TNFα” value in experiment [5] and in experiment [6] was over 10000 fold each time.
Regarding B4, the “Species-specificity IC50 [ng/ml], L929 assay, Rhesus TNFα” value in experiment [7] was 3 ng/mL. In addition, the “Species-specificity IC50 [ng/ml], L929 assay, cyno TNFα” value in experiment [8] is 2.9 ng/mL. In [9], the “Potency in L929 assay, rel. IC50 (IC50 infliximab / IC50 scFv, ng/ml)” value came to 13.1 fold; the “Potency in L929 assay, rel. IC90 (IC90 infliximab / IC90 scFv, ng/ml)” value came out at 12.6 fold; the “Species-specificity IC50 [ng/ml], L929 assay, human TNFα” value was 0.6 ng/mL. Besides, in experiment [10], the Kd was determined as 0.2 nM, the koff turned out to be 9.6e-05 s⁻¹ and the kon was 490000 M⁻¹ s⁻¹. For the same molecule, the IC50 in experiment [11] was determined as 0.0139 µg/mL. In [12], the “rel. IC50 (IC50 infliximab / IC50 scFv, ng/mL)” value was found to be 3.5 fold and the “rel. IC90 (IC90 infliximab / IC90 scFv, ng/mL)” value amounted to 2.4 fold. In experiment [13], this molecule displayed a Kd of 0.23 nM, a koff of 0.00015 s⁻¹ and an association rate constant (kon) of 670000 M⁻¹ s⁻¹. In experiment [14], the IC50 was determined as 0.02 µg/mL. In addition, the “fold difference in affinity against human TNFα” value in experiment [15] was about 5 fold. For the same molecule, the “fold difference in affinity against human TNFα” value in [16] was about 5 fold. Also, in experiment [17], the Kd was 0.045 nM, the koff turned out to be 4.3e-05 s⁻¹ and the kon was 960000 M⁻¹ s⁻¹. Moreover, in [18], the “rel. IC50 (IC50 infliximab / IC50 scFv, ng/mL)” value was determined as 5.7 fold and the “rel. IC90 (IC90 infliximab / IC90 scFv, ng/mL)” value is 3.3 fold. Besides, the binding result in experiment [19] is given as “no binding (tested: 1250 µg/ml)”.
Regarding B5, in experiment [1], the Kd came to 0.0379 nM, the koff was 3.38e-05 s⁻¹ and the kon turned out to be 893000 M⁻¹ s⁻¹. For the same molecule, the “Potency IC50 (nM), L929 assay” value in experiment [2] turned out to be 0.03 nM.
B6: the “Species-specificity IC50 [ng/ml], L929 assay, Rhesus TNFα” value in experiment [7] was found to be 2.9 ng/mL. For the same molecule, the “Species-specificity IC50 [ng/ml], L929 assay, cyno TNFα” value in experiment [8] is 3.5 ng/mL. Besides, in [9], the “Potency in L929 assay, rel. IC50 (IC50 infliximab / IC50 scFv, ng/ml)” value turned out to be 14.6 fold; the “Potency in L929 assay, rel. IC90 (IC90 infliximab / IC90 scFv, ng/ml)” value turned out to be 13.1 fold; the “Species-specificity IC50 [ng/ml], L929 assay, human TNFα” value is 0.5 ng/mL. The IC50 in experiment [11] was found to be 0.0177 µg/mL. In addition, in experiment [12], the “rel. IC50 (IC50 infliximab / IC50 scFv, ng/mL)” value is 2.8 fold and the “rel. IC90 (IC90 infliximab / IC90 scFv, ng/mL)” value came out at 2.1 fold. The IC50 in [14] came out at 0.0326 µg/mL. Further, in experiment [17], the Kd came out at 0.11 nM, the koff stood at 7.1e-05 s⁻¹ and the on-rate (kon) was found to be 680000 M⁻¹ s⁻¹. Moreover, in experiment [18], the “rel. IC50 (IC50 infliximab / IC50 scFv, ng/mL)” value turned out to be 3.5 fold and the “rel. IC90 (IC90 infliximab / IC90 scFv, ng/mL)” value was 1.5 fold. Moreover, in [19], the binding result was “no binding (tested: 1250 µg/ml)”.
